According to PMC7820495:

Biological target: GST-SVIP (Drosophila SVIP, CG32039) (Drosophila) (UniProt Q8IQC6)
Test: pull-down; in vitro binding titration assay of GST-SVIP with MBP-VCP wild type and disease-relevant mutants; binding curves and affinities in Fig. 7b-e

GST-SVIP (Drosophila SVIP, CG32039) (Drosophila), sequence (Q8IQC6 entry or part of it): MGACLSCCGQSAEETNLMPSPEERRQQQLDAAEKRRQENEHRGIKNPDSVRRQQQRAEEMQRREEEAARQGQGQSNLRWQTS

“MBP-VCP^P134L (Drosophila VCP) (from UniProt Q7KN62 1-801) (domain or fragment)” gave a fold reduction of SVIP–VCP affinity against wild type of over 30 fold.
